# Assay results as given in patent US20260008852A1 (CRYSTAL BIOSCIENCE, published 2026).
# T1: B7-H3 on B7-H3-expressing CHO cells (Genescript) (UniProt Q5ZPR3 29-534, limits assumed)
# T1 construct: whole, on cells; also called CHO-K1/B7-H3; MFI B7-H3
# T1 sequence (looked up): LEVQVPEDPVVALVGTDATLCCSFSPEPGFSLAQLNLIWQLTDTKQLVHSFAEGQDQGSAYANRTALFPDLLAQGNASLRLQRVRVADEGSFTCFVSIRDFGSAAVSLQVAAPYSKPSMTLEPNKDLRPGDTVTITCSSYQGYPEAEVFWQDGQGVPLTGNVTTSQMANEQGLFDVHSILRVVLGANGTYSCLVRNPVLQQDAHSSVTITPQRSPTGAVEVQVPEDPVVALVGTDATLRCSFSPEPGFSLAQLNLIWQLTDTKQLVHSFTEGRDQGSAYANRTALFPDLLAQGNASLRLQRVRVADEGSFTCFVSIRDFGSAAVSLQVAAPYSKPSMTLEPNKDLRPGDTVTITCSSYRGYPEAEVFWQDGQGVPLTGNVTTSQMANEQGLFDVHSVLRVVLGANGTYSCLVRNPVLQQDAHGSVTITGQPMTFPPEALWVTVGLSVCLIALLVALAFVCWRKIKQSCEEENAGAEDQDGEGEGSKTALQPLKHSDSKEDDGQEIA
# T2: His-tagged cynomolgus monkey B7-H3 (cynomolgus monkey)
# T2 chain: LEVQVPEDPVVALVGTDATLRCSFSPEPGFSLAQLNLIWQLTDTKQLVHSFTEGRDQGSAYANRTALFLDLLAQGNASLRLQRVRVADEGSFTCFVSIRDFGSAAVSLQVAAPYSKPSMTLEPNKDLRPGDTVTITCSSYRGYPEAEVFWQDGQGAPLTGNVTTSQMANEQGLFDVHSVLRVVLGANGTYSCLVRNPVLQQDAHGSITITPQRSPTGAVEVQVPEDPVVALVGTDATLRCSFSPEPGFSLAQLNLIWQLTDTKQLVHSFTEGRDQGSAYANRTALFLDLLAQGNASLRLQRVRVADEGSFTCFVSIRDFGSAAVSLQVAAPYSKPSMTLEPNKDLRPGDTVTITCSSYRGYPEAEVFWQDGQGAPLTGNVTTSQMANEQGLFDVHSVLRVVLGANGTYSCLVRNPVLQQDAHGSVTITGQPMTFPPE
# T3: His-tagged mouse B7-H3 (mouse, UniProt Q8VE98 29-244, limits assumed)
# T3 construct: Bought His-tagged protein coated on the ELISA plate; also called mu B7-H3; murine B7-H3
# T3 sequence (looked up): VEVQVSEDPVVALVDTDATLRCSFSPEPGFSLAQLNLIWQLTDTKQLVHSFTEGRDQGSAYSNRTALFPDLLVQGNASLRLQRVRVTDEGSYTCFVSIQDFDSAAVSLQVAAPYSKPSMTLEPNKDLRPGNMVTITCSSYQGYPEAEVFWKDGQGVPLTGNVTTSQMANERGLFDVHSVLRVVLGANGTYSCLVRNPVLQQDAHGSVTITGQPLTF
# T4: His-tagged human B7-H3 (human, UniProt Q5ZPR3-2 29-245, limits assumed)
# T4 construct: Bought His-tagged protein coated on the ELISA plate; also called hu B7-H3; CD276
# T4 sequence (looked up): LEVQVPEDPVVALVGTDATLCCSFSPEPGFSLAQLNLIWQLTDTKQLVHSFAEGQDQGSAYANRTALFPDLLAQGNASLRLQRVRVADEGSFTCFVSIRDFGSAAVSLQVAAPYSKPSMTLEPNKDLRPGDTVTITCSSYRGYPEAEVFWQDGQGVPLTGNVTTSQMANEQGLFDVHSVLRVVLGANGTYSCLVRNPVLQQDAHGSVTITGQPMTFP
# Tests used:
# [1] = target: T1, B7-H3 on B7-H3-expressing CHO cells …; assay: flow cytometry, B7-H3-expressing CHO cells, 10 ug/ml
# Protocol: Binding of anti-B7-H3 antibodies to cell lines was assessed by flow cytometry. Briefly, approximately 1.5 e5 B7-H3-expressing CHO cells (Genescript) or parent CHO cells (ATCC) were resuspended in FACS buffer (PBS/1% BSA/0.01% NaN3) containing 10 μg/ml of anti-B7-H3 antibodies and incubated for 60 min on ice. […] Cells were then washed twice, resuspended in FACS buffer, and read on an Attune Flow Cytometer (Life Technologies). Data are expressed as Mean Fluorescent Intensities (MFI).
# [2] = target: T2, His-tagged cynomolgus monkey B7-H3; assay: ELISA, coated His-tagged antigen, scFv-Fc 1 ug/ml
# Protocol: (§1) The variable regions of heavy and light chains were cloned and assembled into a single chain Fv-Fc (ScFv-Fc) mammalian expression vector. Sanger sequencing was performed by GeneWiz and sequences were evaluated using DNASTAR Lasergene 15. Unique scFv-Fes were transiently expressed in Expi293 cells (Life Technologies, #A14527) grown in Expi293 Expression Medium (Life Technologies, #A1435101) after transfection using the ExpiFectamine transfection reagent and supplements (Life Technologies, #A14524). Cells were incubated for 3-5 days with shaking at 37° C. in a 5% CO2 humidified incubator.
# His-tagged mouse B7-H3 = target: T3, His-tagged mouse B7-H3; assay: ELISA, coated His-tagged antigen, scFv-Fc 1 ug/ml
# Protocol: as §1
# His-tagged human B7-H3 [3] = target: T4, His-tagged human B7-H3; assay: ELISA, coated His-tagged antigen, scFv-Fc 1 ug/ml
# Protocol: as §1
# His-tagged human B7-H3 [4] = target: T4, His-tagged human B7-H3; assay: ELISA OD450 on hu B7-H3 over OD450 on mu B7-H3
# Protocol: as §1
Binder,MFI @ 10 ug/ml [1] [MFI],ELISA OD450 @ 1 ug/ml [2] [OD450],ELISA OD450 @ 1 ug/ml (His-tagged mouse B7-H3) [OD450],ELISA OD450 @ 1 ug/ml (His-tagged human B7-H3 [3]) [OD450],hu:mu ratio (His-tagged human B7-H3 [4])
"40633p1.1.E4 (scFv, V domains shown, Tested as scFv-Fc (Expi293 supernatant)) VH: EVQLLESGGGLVQPGGSLRLSCAASGFTFSSYWMSWVRQAPGKGLEWVSGISSSGSATYYADSVKGRFTISRDNSKNTLYLQMNSLRAEDTAVYYCARWNDYDIMDVWGQGTTVTVSS VL: not shown",80000,1.86,1.51,1.95,1.29
"40633p1.2.D7 (scFv, V domains shown, Tested as scFv-Fc (Expi293 supernatant)) VH: EVQLLESGGSLVQPGGSLRLSCAASGFTFSSYWMSWVRQAPGKGLEWVSGISSSGSATYYADSVKGRFTISRDNSKNTLYLQMNSLRAEDTAVYYCARWNDYDIMDVWGQGTTVTVSS VL: not shown",75100,1.92,1.51,2.19,1.45
"40633p1.1.C11 (scFv, V domains shown, Tested as scFv-Fc (Expi293 supernatant)) VH: EVQLLESGGGLVQPGGSLRLSCAASGFTFSSYWMSWVRQAPGKGLEWVAGINRNGGTTYYADSVKGRFTISRDNSKNTLYLQMNSLRAEDTAVYYCARWNDYDIMDVWGQGTTVTVSS VL: not shown",81100,1.65,1.85,2.09,1.13
"40633p1.1.B3 (scFv, V domains shown, Tested as scFv-Fc (Expi293 supernatant)) VH: EVQLLESGGGLVQPGGSLRLSCAASGFTVSYYGMSWVRQAPGKGLEWVSAIKQDGSEKYYADSVKGRFTISRDNSKNTLYLQMNSLRAEDTAVYYCARHWNDYSNAMNVWGQGTTVTVSS VL: QSVLTQPPSASGTPGQRVTISCSGSTSNIGRESVYWYQQLPGTAPKLLIYTIDQRPSGVPDRFSGSKSGTSASLAISGLQSEDEADYYCGTWDDSLNAWVFGGGTKLTVL",74700,1.89,1.83,2.04,1.11
"40633p1.2.A8 (scFv, V domains shown, Tested as scFv-Fc (Expi293 supernatant)) VH: EVQLLESGGGLLQPGGSLRLSCAASGFSFSSYGMHWVRQAPGKGLEWVAAINSDGSRIYYADSVKGRFTISRDNSKNTLYLQMNSLRAEDTAVYYCTKYYYHYAMDVWGQGTTVTVSS VL: QSVLTQPPSASGTPGQRVTISCSGSRSDIGATTVNWYQQLPGTAPKLLIYQSHLRPSGVPDRFSGSKSGTSASLAISGLQSEDEADYYCASWDASLNTWVFGGGTKLTVL",62200,2.16,1.95,2.17,1.11
"40633p1.2.G9 (scFv, V domains shown, Tested as scFv-Fc (Expi293 supernatant)) VH: EVQLLESGGGLLQPGGSLRLSCAASGFSFSSYGMHWVRQAPGKGLEWVAAINSDGSRIYYADSVEGRFTISRDNSKNTLYLQMNSLRAEDTAVYYCTKYYYHYAMDVWGQGTTVTVSS VL: QSVLTQPPSASGTPGQRVTISCSGSRSDIGATTVNWYQQLPGTAPKLLIYQSHLRPSGVPDRFSGSKSGTSASLAISGLQSEDEADYYCASWDASLNTWVFGGGTKLTVL",67600,2.41,1.85,2.08,1.13
"40633p1.1.B12 (scFv, V domains shown, Tested as scFv-Fc (Expi293 supernatant)) VH: EVQLLESGGGLLQPGGSLRLSCAASGFSFSSYGMHWVRQAPGKGLEWVAAINSDGSRIYYADSVKGRFTISRDNSKNTLYLQMNSLRAEDTAVYYCTKYYYHYAMDVWGQGTTVTVSS VL: QSVLTQPPSASGTPGQRVTISCSGSRSDIGATTVNWYQQLPGTAPKLLTYQSHLRPSGVPDRFSGSKSGTSASLAISGLQSEDEADYYCASWDASLNTWVFGGGTKLTVL",65400,1.72,1.75,1.83,1.04
